Experimental data taken from PMC5061712.

What was measured:
[1] = molecular target: FtsX‐His (full‐length pneumococcal FtsX with a His6 tag) (Streptococcus pneumoniae); assay: cross-linking; FtsX‐His and FtsE‐His together in detergent micelles with glutaraldehyde; data not shown
[2] = molecular target: FtsX‐His (full‐length pneumococcal FtsX with a His6 tag) (Streptococcus pneumoniae); assay: densitometry of Coomassie‐stained bands of purified nanodiscs; FtsX‐His reconstituted in MSPE3D1/soybean lipid nanodiscs, purified by Ni‐NTA and SEC; relative intensities of MSPE3D1 and FtsX‐His bands, assuming two MSPE3D1 per nanodisc
[3] = molecular target: FtsX‐His (full‐length pneumococcal FtsX with a His6 tag) (Streptococcus pneumoniae); assay: cross-linking; FtsX‐His (5–10 μmol/L) with glutaraldehyde (0.5–2.0 mmol/L), 30–45 min, room temperature, 50 mmol/L HEPES pH 8.0, 200 mmol/L NaCl, 5% glycerol, 0.02% DDM, 0.02% C12E8; SDS‐PAGE, Coomassie

stoichiometry N [1]: 2
FtsX‐His molecules per nanodisc (molecules per nanodisc) [2]: 1.5
stoichiometry N [3]: 2
Substance: FtsX‐His (full‐length pneumococcal FtsX with a His6 tag) (natural protein)
